Results taken from patent US20250282866A1 (VIGIL NEUROSCIENCE, published 2025).

What was measured:
human TREM2 [1] = target: T1, human TREM2 (human, UniProt Q9NZC2 19-174, limits assumed); assay: 2nd screen 10 nM
T1 construct: also called triggering receptor expressed on myeloid cells 2
T1 sequence: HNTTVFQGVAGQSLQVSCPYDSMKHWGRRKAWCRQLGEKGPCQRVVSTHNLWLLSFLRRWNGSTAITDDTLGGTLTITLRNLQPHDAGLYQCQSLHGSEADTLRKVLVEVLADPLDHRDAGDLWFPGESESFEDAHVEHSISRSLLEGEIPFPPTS

human TREM2 [2] = target: T1, human TREM2; assay: 1st screen (110 nM or 10 nM)
human TREM2 [3] = target: T1, human TREM2; assay: 2nd screen 2 nM

B1: V15 (antibody, V domains shown)
VH: EVQLVQSGAEVKKPGESLKISCKGSGYSFASYWIAWVRQMPGKGLEWMGTIYPGDSDTRYSPSFQGQVTISADKSISTAYLQWSSLKASDTAMYFCARSRTFYYDSSDYFDYWGQGTLVTVSS
VL: DIQMTQSPSSVSASVGDRVTITCRASQGISSWLAWYQQKPGKAPKLLIYAASWLQNGVPSRFSGSGSGTDFTLTISSLQPEDFATYFCQQADSYPRTFGQGTKLEIK
**Q.** Which “Binding Signal (fold over 6E7 Parental antibody)” value (human TREM2 [1]) does the source give for B1 here?
**A.** 4.78 fold

**Q.** What about the “Binding Signal (fold over 6E7 Parental antibody)” value (human TREM2 [2]) of the same binder?
**A.** 5.23 fold

**Q.** And the “Binding Signal (fold over 6E7 Parental antibody)” value (human TREM2 [3])?
**A.** 4.72 fold

B2: V37 (antibody, V domains shown)
VH: EVQLVQSGAEVKKPGESLKISCKGSGYSHTSYWIAWVRQMPGKGLEWMGIIYPGDSDTRYSPSFAGQVTISADKSISTAYLQWSSLKASDTAMYFCARSRTFYYDSSDYFDYWGQGTLVTVSS
VL: DIQMTQSPSSVSASVGDRVTITCRASQGISSWLAWYQQKPGKAPKLLIYAASSLQWGVPSRFSGSGSGTDFTLTISSLQPEDFATYFCQQADSYPRTFGQGTKLEIK
**Q.** What does the source list for B2?
**A.** Binding Signal (fold over 6E7 Parental antibody) (human TREM2 [1]): 3.49 fold; Binding Signal (fold over 6E7 Parental antibody) (human TREM2 [2]): 3.46 fold; Binding Signal (fold over 6E7 Parental antibody) (human TREM2 [3]): 3.69 fold

B3: V48 (antibody, V domains shown)
VH: EVQLVQSGAEVKKPGESLKISCKGSGYSFGSYWIAWVRQMPGKGLEWMGIIYPGDSDVRYSPSFQGQVTISADKSISTAYLQWSSLKASDTAMYFCARMRTFYYDSSDYFDYWGQGTLVTVSS
VL: DIQMTQSPSSVSASVGDRVTITCRASQGISSWLAWYQQKPGKAPKLLIYAASSLQTGVPSRFSGSGSGTDFTLTISSLQPEDFATYFCQQADSLPRTFGQGTKLEIK
**Q.** What does the source list for B3?
**A.** Binding Signal (fold over 6E7 Parental antibody) (human TREM2 [1]): 2.54 fold; Binding Signal (fold over 6E7 Parental antibody) (human TREM2 [2]): 2.42 fold; Binding Signal (fold over 6E7 Parental antibody) (human TREM2 [3]): 2.3 fold

B4: V40 (antibody, V domains shown)
VH: EVQLVQSGAEVKKPGESLKISCKGSGYSFGSYWIAWVRQMPGKGLEWMGIIYPGDSDVRYSPSFQGQVTISADKSISTAYLQWSSLKASDTAMYFCARQRTFYYDSSDYSDYWGQGTLVTVSS
VL: DIQMTQSPSSVSASVGDRVTITCRASQGISSWLAWYQQKPGKAPKLLIYAASSLQLGVPSRFSGSGSGTDFTLTISSLQPEDFATYFCQQADRFPRTFGQGTKLEIK
**Q.** What does the source list for B4?
**A.** Binding Signal (fold over 6E7 Parental antibody) (human TREM2 [1]): 4.16 fold; Binding Signal (fold over 6E7 Parental antibody) (human TREM2 [2]): 4.48 fold; Binding Signal (fold over 6E7 Parental antibody) (human TREM2 [3]): 3.41 fold

B5: V36 (antibody, V domains shown)
VH: EVQLVQSGAEVKKPGESLKISCKGSGYSFTSYWLAWVRQMPGKGLEWMGIIYPGDSDTRYSPSFQGQVTISADKSISTAYLQWSSLKASDTAMYFCARSRTFYYDSSDYFDYWGQGTLVTVSS
VL: DIQMTQSPSSVSASVGDRVTITCRASQGISSWLAWYQQKPGKAPKLLIYAASSRQNGVPSRFSGSGSGTDFTLTISSLQPEDFATYFCQQADSYPRTFGQGTKLEIK
**Q.** Which results are given for B5?
**A.** Binding Signal (fold over 6E7 Parental antibody) (human TREM2 [1]): 3.44 fold; Binding Signal (fold over 6E7 Parental antibody) (human TREM2 [2]): 3.38 fold; Binding Signal (fold over 6E7 Parental antibody) (human TREM2 [3]): 4 fold

B6: V16 (antibody, V domains shown)
VH: EVQLVQSGAEVKKPGESLKISCKGSGYSMTSYWIAWVRQMPGKGLEWMGIIYPGDGDTRYSPSFQGQVTISADKSISTAYLQWSSLKASDTAMYFCARSRTFYYDSSDYFDYWGQGTLVTVSS
VL: DIQMTQSPSSVSASVGDRVTITCRASQGISSWLAWYQQKPGKAPKLLIYAASNLQNGVPSRFSGSGSGTDFTLTISSLQPEDFATYFCQQADSFPRTFGQGTKLEIK
**Q.** With B6 as the binder, how does the “Binding Signal (fold over 6E7 Parental antibody)” value (human TREM2 [1]) read?
**A.** 4.04 fold

**Q.** What about the “Binding Signal (fold over 6E7 Parental antibody)” value (human TREM2 [2]) of the same binder?
**A.** 4.01 fold

**Q.** And the “Binding Signal (fold over 6E7 Parental antibody)” value (human TREM2 [3])?
**A.** 3.57 fold

B7: V17 (antibody, V domains shown)
VH: EVQLVQSGAEVKKPGESLKISCKGSGYSFGSYWIAWVRQMPGKGLEWMGIIYPGDSDTRYSPSFQGQVTISADKSISTAYLQWSSLKASDTAMYFCARSRTFYYDSSDYFDYWGQGTLVTVSS
VL: DIQMTQSPSSVSASVGDRVTITCRASQGISSWLAWYQQKPGKAPKLLIYAASSRQNGVPSRFSGSGSGTDFTLTISSLQPEDFATYFCQQADSSPRTFGQGTKLEIK
**Q.** How did the “Binding Signal (fold over 6E7 Parental antibody)” value (human TREM2 [1]) turn out when B7 was run?
**A.** 5.51 fold

**Q.** And the “Binding Signal (fold over 6E7 Parental antibody)” value (human TREM2 [2])?
**A.** 5.37 fold

**Q.** And the “Binding Signal (fold over 6E7 Parental antibody)” value (human TREM2 [3])?
**A.** 4.22 fold

B8: V29 (antibody, V domains shown)
VH: EVQLVQSGAEVKKPGESLKISCKGSGYSFKSYWIAWVRQMPGKGLEWMGIIYPGDSDTRYSPSFQGQVTISADKSISTAYLQWSSLKASDTAMYFCARQRTFYYDSSDYFDYWGQGTLVTVSS
VL: DIQMTQSPSSVSASVGDRVTITCRASQGISSWLAWYQQKPGKAPKLLIYAASSLQNGVPSRFSGSGSGTDFTLTISSLQPEDFATYFCQQADSFPRTFGQGTKLEIK
**Q.** With B8 as the binder, how does the “Binding Signal (fold over 6E7 Parental antibody)” value (human TREM2 [1]) read?
**A.** 1.67 fold

**Q.** What about the “Binding Signal (fold over 6E7 Parental antibody)” value (human TREM2 [2]) of the same binder?
**A.** 1.53 fold

**Q.** And the “Binding Signal (fold over 6E7 Parental antibody)” value (human TREM2 [3])?
**A.** 0.84 fold

B9: V26 (antibody, V domains shown)
VH: EVQLVQSGAEVKKPGESLKISCKGSGYSFTSYWIGWVRQMPGKGLEWMGTIYPGDSDTRYSPSFQGQVTISADKSISTAYLQWSSLKASDTAMYFCARQRTMYYDSSDYFDAWGQGTLVTVSS
VL: DIQMTQSPSSVSASVGDRVTITCRASQGISSWLAWYQQKPGKAPKLLIYAASSLQRGVPSRFSGSGSGTDFTLTISSLQPEDFATYFCQQADSYPRTFGQGTKLEIK
**Q.** With B9 as the binder, how does the “Binding Signal (fold over 6E7 Parental antibody)” value (human TREM2 [1]) read?
**A.** 3.47 fold

**Q.** What about the “Binding Signal (fold over 6E7 Parental antibody)” value (human TREM2 [2]) of the same binder?
**A.** 3.57 fold

**Q.** And the “Binding Signal (fold over 6E7 Parental antibody)” value (human TREM2 [3])?
**A.** 2.83 fold

B10: V24 (antibody, V domains shown)
VH: EVQLVQSGAEVKKPGESLKISCKGSGYSFTSYWIAWVRQMPGKGLEWMGIIYPGDSDVRYSPSFQGQVTISADKSISTAYLQWSSLKASDTAMYFCARSRTFYYDSSDYFDYWGQGTLVTVSS
VL: DIQMTQSPSSVSASVGDRVTITCRASQGISSWLAWYQQKPGKAPKLLIYAASSLQKGVPSRFSGSGSGTDFTLTISSLQPEDFATYFCQQADSFPHTFGQGTKLEIK
**Q.** How did the “Binding Signal (fold over 6E7 Parental antibody)” value (human TREM2 [1]) turn out when B10 was run?
**A.** 2.9 fold

**Q.** What about the “Binding Signal (fold over 6E7 Parental antibody)” value (human TREM2 [2]) of the same binder?
**A.** 2.64 fold

**Q.** What about the “Binding Signal (fold over 6E7 Parental antibody)” value (human TREM2 [3]) of the same binder?
**A.** 1.42 fold

B11: V28 (antibody, V domains shown)
VH: EVQLVQSGAEVKKPGESLKISCKGSGYSFQSYWIAWVRQMPGKGLEWMGTIYPGDSDTRYSPSFQGQVTISADKSISTAYLQWSSLKASDTAMYFCARQRTFFYDSSDYFDYWGQGTLVTVSS
VL: DIQMTQSPSSVSASVGDRVTITCRASQGISSWLAWYQQKPGKAPKLLIYAASSLQSGVPSRFSGSGSGTDFTLTISSLQPEDFATYFCQQADSLPRTFGQGTKLEIK
**Q.** What does the source list for B11?
**A.** Binding Signal (fold over 6E7 Parental antibody) (human TREM2 [1]): 3.61 fold; Binding Signal (fold over 6E7 Parental antibody) (human TREM2 [2]): 3.08 fold; Binding Signal (fold over 6E7 Parental antibody) (human TREM2 [3]): 2.63 fold

B12: V27 (antibody, V domains shown)
VH: EVQLVQSGAEVKKPGESLKISCKGSGYSFTSYWIAWVRQMPGKGLEWMGIIYPGDSDTRYAPSFQGQVTISADKSISTAYLQWSSLKASDTAMYFCVRSRTFYYDSSDYFDYWGQGTLVTVSS
VL: DIQMTQSPSSVSASVGDRVTITCRASQGISSWLAWYQQKPGKAPKLLIYAASSLQRGVPSRFSGSGSGTDFTLTISSLQPEDFATYFCQQADSFPRTFGQGTKLEIK
**Q.** With B12 as the binder, how does the “Binding Signal (fold over 6E7 Parental antibody)” value (human TREM2 [1]) read?
**A.** 5.69 fold

**Q.** And the “Binding Signal (fold over 6E7 Parental antibody)” value (human TREM2 [2])?
**A.** 5.5 fold

**Q.** And the “Binding Signal (fold over 6E7 Parental antibody)” value (human TREM2 [3])?
**A.** 5.67 fold

B13: V38 (antibody, V domains shown)
VH: EVQLVQSGAEVKKPGESLKISCKGSGYSFGSYWIAWVRQMPGKGLEWMGIIYPGDSDVRYSPSFQGQVTISADKSISTAYLQWSSLKASDTAMYFCARQRTFYYDSSDYFDYWGQGTLVTVSS
VL: DIQMTQSPSSVSASVGDRVTITCRASQGISSWLAWYQQKPGKAPKLLIYAASSRQNGVPSRFSGSGSGTDFTLTISSLQPEDFATYFCQQADSHPRTFGQGTKLEIK
**Q.** What does the source list for B13?
**A.** Binding Signal (fold over 6E7 Parental antibody) (human TREM2 [1]): 4.36 fold; Binding Signal (fold over 6E7 Parental antibody) (human TREM2 [2]): 4.34 fold; Binding Signal (fold over 6E7 Parental antibody) (human TREM2 [3]): 3.44 fold

B14: V25 (antibody, V domains shown)
VH: EVQLVQSGAEVKKPGESLKISCKGSGYSFGSYWIAWVRQMPGKGLEWMGLIYPGDSDTRYSPSFQGQVTISADKSISTAYLQWSSLKASDTAMYFCARSRTFYYDSSDYFDYWGQGTLVTVSS
VL: DIQMTQSPSSVSASVGDRVTITCRASQGISSWLAWYQQKPGKAPKLLIYAASSLANGVPSRFSGSGSGTDFTLTISSLQPEDFATYFCQQADSMPRTFGQGTKLEIK
**Q.** With B14 as the binder, how does the “Binding Signal (fold over 6E7 Parental antibody)” value (human TREM2 [1]) read?
**A.** 4.7 fold

**Q.** And the “Binding Signal (fold over 6E7 Parental antibody)” value (human TREM2 [2])?
**A.** 4.23 fold

**Q.** What about the “Binding Signal (fold over 6E7 Parental antibody)” value (human TREM2 [3]) of the same binder?
**A.** 3.15 fold

B15: V41 (antibody, V domains shown)
VH: EVQLVQSGAEVKKPGESLKISCKGSGYSFTSYWIAWVRQMPGKGLEWMGTIYPGDSDTRYSPSFQGQVTISADKSISTAYLQWSSLKASDTAMYFCARQRTFYYDSSDYFDYWGQGTLVTVSS
VL: DIQMTQSPSSVSASVGDRVTITCRASQGISSWLAWYQQKPGKAPKLLIYAASSLQNGVPSRFSGSGSGTDFTLTISSLQPEDFATYFCQQADSFPRTFGQGTKLEIK
**Q.** With B15 as the binder, how does the “Binding Signal (fold over 6E7 Parental antibody)” value (human TREM2 [1]) read?
**A.** 1.72 fold

**Q.** What about the “Binding Signal (fold over 6E7 Parental antibody)” value (human TREM2 [2]) of the same binder?
**A.** 1.74 fold

**Q.** What about the “Binding Signal (fold over 6E7 Parental antibody)” value (human TREM2 [3]) of the same binder?
**A.** 0.58 fold

B16: V39 (antibody, V domains shown)
VH: EVQLVQSGAEVKKPGESLKISCKGSGYSFGSYWIAWVRQMPGKGLEWMGIIYPGDSDTRYNPSFQGQVTISADKSISTAYLQWSSLKASDTAMYFCARGRTFYYDSSDYFDYWGQGTLVTVSS
VL: DIQMTQSPSSVSASVGDRVTITCRASQGISSWLAWYQQKPGKAPKLLIYAASSLVNGVPSRFSGSGSGTDFTLTISSLQPEDFATYFCQQADSSPRTFGQGTKLEIK
**Q.** What does the source list for B16?
**A.** Binding Signal (fold over 6E7 Parental antibody) (human TREM2 [1]): 5.81 fold; Binding Signal (fold over 6E7 Parental antibody) (human TREM2 [2]): 6.15 fold; Binding Signal (fold over 6E7 Parental antibody) (human TREM2 [3]): 5.11 fold
